From patent US20240279318A1 (published 2024)
Each block holds one binder with its values, some of them ahead of it.

Assays:
A*02:03 [1] = experiment: SPR; head prints KD(1/s)
A*02:11 [2] = experiment: SPR; head prints KD(1/s)
A*02:07 [3] = experiment: SPR; head prints KD(1/s)
A*02:06 [4] = experiment: SPR; head prints KD(1/s)
A*02:02 [5] = experiment: SPR; head prints KD(1/s)
A*02:05 [6] = experiment: SPR; head prints KD(1/s)
A*02:03 [7] = experiment: SPR; low fitting confidence
A*02:07 [8] = experiment: SPR; low fitting confidence
A*02:02 [9] = experiment: SPR; low fitting confidence
A*02:05 [10] = experiment: SPR; low fitting confidence
A*02:11 [11] = experiment: SPR
A*02:06 [12] = experiment: SPR
A*02:11 [13] = experiment: SPR; low fitting confidence
A*02:05 [14] = experiment: SPR
A*02:03 [15] = experiment: SPR
A*02:02 [16] = experiment: SPR
AFP158 loaded T2 cells = AFP158 loaded T2 cells (human;, UniProt P61769 21-119); experiment: flow cytometry
[17] = molecular target: AFP158/HLA-A*02:01 complex; experiment: SPR; head prints KD(1/s)
A*02:11 [18] = experiment: SPR; remark: listed apart in the source
A*02:07 [19] = experiment: SPR
A*02:06 [20] = experiment: SPR; remark: listed apart in the source
A*02:03 [21] = experiment: SPR; low fitting confidence; remark: listed apart in the source
A*02:02 [22] = experiment: SPR; low fitting confidence; remark: listed apart in the source
A*02:05 [23] = experiment: SPR; low fitting confidence; remark: listed apart in the source
[24] = molecular target: AFP158/HLA-A*02:01 complex; experiment: SPR
A*02:03 [25] = experiment: SPR; remark: listed apart in the source
A*02:05 [26] = experiment: SPR; remark: listed apart in the source
A*02:11 [27] = experiment: SPR; low fitting confidence; remark: listed apart in the source
A*02:07 [28] = experiment: SPR; low fitting confidence; remark: listed apart in the source

B3: AS179732 VL1g1VH1g1-N73Y (Fc fusion)
chain: QSVLTQPPSASGTPGQRVTISCSGSSSNIGGNYVNWYQQLPGTAPKLLIYDNSNRASGVPDRFSGSKSGTSASLAISGLQSEDEADYYCASWDDSLSGAVFGGGTKLTVLGGGGSGGGGSGGGGSEVQLVESGGGLVQPGGSLRLSCAASGFTFLNYAMSWVRQAPGKGLEWVSSNSGAGSTYYADSVKGRFTISRDYSKNTLYLQMNSLRAEDTAVYYCAKGTNVGSWSSLHYWGQGTLVTVSS
- Kd (A*02:03 [7]): > 11 µM
- Kd (A*02:11 [13]): > 1 µM
- Kd (A*02:07 [8]): > 2.4 µM
- Kd (A*02:02 [9]): > 29 µM
- Kd (A*02:06 [12]): 0.22 µM
- Kd (A*02:05 [14]): 17 µM

B4: AS179732 (Fc fusion)
chain: NFMLTQPPSMSGSPRQSVTISCTGSSSNIGGNYVNWYQHLPGTAPKLLIYDNSNRASGVPERFSGSKSGSSASLTITGLQAEDEGDYYCASWDDSLSGAVFGGGTHLTVLGGGGSGGGGSGGGGSEVQLVESGGGLVQPGGSLRLSCAASGFTFLNYAMSWVRQAPGKGLEWVSSNSGAGSTYYSDSVKGRFTISRDYAKNVVYLQLNSLKTEDTGMYYCAKGTNVGSWSSLHYWGQGTQVTVSS
- Kd (A*02:07 [8]): > 0.77 µM
- Kd (A*02:03 [15]): 2.14 µM
- Kd (A*02:11 [11]): 0.656 µM
- Kd (A*02:06 [12]): 0.191 µM
- Kd (A*02:02 [16]): 19 µM
- Kd (A*02:05 [14]): 26.2 µM

B7: AS170036 VL1VH1-56Y98Q108S (scFv)
scFv: QSALTQPRSVSGSPGQSVTISCAGTSSDVGSENYVSWYQQHPGKAPKLMIYQVNKRASGVPDRFSGSKSGNTASLTISGLQAEDEADYYCASYRSSDQNIVFGGGTKLTVLGGGGSGGGGSGGGGSEVQLVESGGGLVQPGGSLRLSCAASGFTFSSYAMSWVRQAPGKGLEWVSTINSGTYSPYYADSVKGRFTISRDNSKNTLYLQMNSLRAEDTAVYYCAKNFFDGSWFLSPPAMDYWGQGTLVTVSSHHHHHH
- Kd (A*02:11 [18]): 0.29 µM
- Kd (A*02:07 [19]): 1.5 µM
- Kd (A*02:06 [20]): 0.089 µM
- Kd (A*02:03 [21]): < 0.018 µM
- Kd (A*02:02 [22]): > 3.1 µM
- Kd (A*02:05 [23]): > 1.4 µM
- Kd [24]: 0.007 µM

B8: AS170036 VL1VH1-57K108S (scFv)
scFv: QSALTQPRSVSGSPGQSVTISCAGTSSDVGSENYVSWYQQHPGKAPKLMIYQVNKRASGVPDRFSGSKSGNTASLTISGLQAEDEADYYCASYRSSDHNIVFGGGTKLTVLGGGGSGGGGSGGGGSEVQLVESGGGLVQPGGSLRLSCAASGFTFSSYAMSWVRQAPGKGLEWVSTINSGTGKPYYADSVKGRFTISRDNSKNTLYLQMNSLRAEDTAVYYCAKNFFDGSWFLSPPAMDYWGQGTLVTVSSHHHHHH
- Kd (A*02:11 [18]): 0.37 µM
- Kd (A*02:07 [19]): 10 µM
- Kd (A*02:06 [20]): 0.5 µM
- Kd (A*02:03 [21]): < 0.01 µM
- Kd (A*02:02 [22]): > 1.4 µM
- Kd [24]: 0.035 µM

B10: AS170036 VL1VH1-56N108A (scFv)
scFv: QSALTQPRSVSGSPGQSVTISCAGTSSDVGSENYVSWYQQHPGKAPKLMIYQVNKRASGVPDRFSGSKSGNTASLTISGLQAEDEADYYCASYRSSDHNIVFGGGTKLTVLGGGGSGGGGSGGGGSEVQLVESGGGLVQPGGSLRLSCAASGFTFSSYAMSWVRQAPGKGLEWVSTINSGTNSPYYADSVKGRFTISRDNSKNTLYLQMNSLRAEDTAVYYCAKNFFDGSWFLAPPAMDYWGQGTLVTVSSHHHHHH
- Kd (A*02:03 [25]): 6.7 µM
- Kd (A*02:06 [20]): 0.32 µM
- Kd (A*02:11 [27]): > 0.5 µM
- Kd (A*02:07 [28]): > 9.1 µM
- Kd (A*02:02 [22]): > 3.7 µM
- Kd (A*02:05 [23]): > 2 µM
- Kd [24]: 0.027 µM

B11: AS170036 VL1VH1-56N98I (scFv)
scFv: QSALTQPRSVSGSPGQSVTISCAGTSSDVGSENYVSWYQQHPGKAPKLMIYQVNKRASGVPDRFSGSKSGNTASLTISGLQAEDEADYYCASYRSSDINIVFGGGTKLTVLGGGGSGGGGSGGGGSEVQLVESGGGLVQPGGSLRLSCAASGFTFSSYAMSWVRQAPGKGLEWVSTINSGTNSPYYADSVKGRFTISRDNSKNTLYLQMNSLRAEDTAVYYCAKNFFDGSWFLGPPAMDYWGQGTLVTVSSHHHHHH
- Kd (A*02:03 [25]): 2.7 µM
- Kd (A*02:06 [20]): 0.57 µM
- Kd (A*02:05 [26]): 2.1 µM
- Kd (A*02:11 [27]): > 0.5 µM
- Kd (A*02:07 [28]): > 17 µM
- Kd (A*02:02 [22]): > 3.2 µM
- Kd [24]: 0.041 µM

B12: AS170036 VL1VH1 (Fc fusion)
chain: QSALTQPRSVSGSPGQSVTISCAGTSSDVGSENYVSWYQQHPGKAPKLMIYQVNKRASGVPDRFSGSKSGNTASLTISGLQAEDEADYYCASYRSSDHNIVFGGGTKLTVLGGGGSGGGGSGGGGSEVQLVESGGGLVQPGGSLRLSCAASGFTFSSYAMSWVRQAPGKGLEWVSTINSGTGSPYYADSVKGRFTISRDNSKNTLYLQMNSLRAEDTAVYYCAKNFFDGSWFLGPPAMDYWGQGTLVTVSS
- Kd (A*02:11 [13]): > 14 µM
- Kd (A*02:07 [8]): > 1.2 µM
- Kd (A*02:02 [9]): > 71 µM
- Kd (A*02:06 [12]): 2.77 µM

The remaining lines, values ahead:

- Kd (A*02:03 [1]): 48 µM
- Kd (A*02:11 [2]): 6.7 µM
- Kd (A*02:07 [3]): 3.5 µM
- Kd (A*02:06 [4]): 0.8 µM
- Kd (A*02:02 [5]): 0.97 µM
- Kd (A*02:05 [6]): 7 µM
B1: AS190259 VL1VH1 (Fc fusion)
chain: SSELTQDPAVSVALGQTVRITCQGGGYYVNWYQQKPGQAPVLVIYLNTNRPSGIPDRFSGSSSGNTASLTITGAQAEDEADYYCQSADSSGNSAVFGGGTKLTVLGGGGSGGGGSGGGGSEVQLVESGGGLVQPGGSLRLSCAASGFTFSSYAMSWVRQAPGKGLEWVSAINSGGGSTYYADSVKGRFTISRDNSKNTLYLQMNSLRAEDTAVYYCAKAASGYGGSWWGDATLDAWGQGTLVTVSS

- Kd (A*02:03 [7]): > 6.1 µM
- Kd (A*02:07 [8]): > 1.7 µM
- Kd (A*02:02 [9]): > 77 µM
- Kd (A*02:05 [10]): > 17 µM
- Kd (A*02:11 [11]): 0.7 µM
- Kd (A*02:06 [12]): 0.22 µM
B2: AS179723 VL1g1VH1g1-N73Y (Fc fusion)
chain: QSVLTQPPSASGTPGQRVTISCSGSSNNIGGNYVNWYQQLPGTAPKLLIYDNKNRPSGVPDRFSGSKSGTSASLAISGLQSEDEADYYCASWDDSLSAVVFGGGTKLTVLGGGGSGGGGSGGGGSEVQLVESGGGLVQPGGSLRLSCAASGFTFLNYAMSWVRQAPGKGLEWVSSNSGAGSTYYADSVKGRFTISRDYSKNTLYLQMNSLRAEDTAVYYCAKGTNVGSWSSLHYWGQGTLVTVSS

- Kd (A*02:03 [1]): 35 µM
- Kd (A*02:11 [2]): 4.5 µM
- Kd (A*02:07 [3]): 2.5 µM
- Kd (A*02:06 [4]): 0.52 µM
- Kd (A*02:02 [5]): 0.66 µM
- Kd (A*02:05 [6]): 3.8 µM
B5: AS190259 (Fc fusion)
chain: QSVVTQPSAVSVSLEETATITCQGGGYYVNWYQQKPGQAPVLVIYLNTNRPSGIPERFSASKSGGTATLTINGAQAEDEAAYYCQSADSSGNSAVFGGGTHLTVLGGGGSGGGGSGGGGSQVQLVQSGGGLVQPGGSLRLSCAASGFTFSSYAMSWVRQAPGKGLEWVSAINSGGGSTYYADSVKGRFTISRDNAKNTLYLQLNSLKTEDTAMYYCAKAASGYGGSWWGDATLDAWGQGTLVTVSS

- EC50 (AFP158 loaded T2 cells): 0.00376 µM
- Kd [17]: 0.1 µM
B6: AS190259 scFv-mIgG2aFc (Fc fusion)
chain: QSVVTQPSAVSVSLEETATITCQGGGYYVNWYQQKPGQAPVLVIYLNTNRPSGIPERFSASKSGGTATLTINGAQAEDEAAYYCQSADSSGNSAVFGGGTHLTVLGGGGSGGGGSGGGGSQVQLVQSGGGLVQPGGSLRLSCAASGFTFSSYAMSWVRQAPGKGLEWVSAINSGGGSTYYADSVKGRFTISRDNAKNTLYLQLNSLKTEDTAMYYCAKAASGYGGSWWGDATLDAWGQGTLVTVSS

- Kd (A*02:03 [25]): 0.95 µM
- Kd (A*02:11 [18]): 0.16 µM
- Kd (A*02:07 [19]): 1 µM
- Kd (A*02:06 [20]): 0.069 µM
- Kd (A*02:05 [26]): 2.4 µM
- Kd (A*02:02 [22]): > 4.5 µM
- Kd [24]: 0.0024 µM
B9: AS170036 VL1VH1-56Y98I108S (scFv)
scFv: QSALTQPRSVSGSPGQSVTISCAGTSSDVGSENYVSWYQQHPGKAPKLMIYQVNKRASGVPDRFSGSKSGNTASLTISGLQAEDEADYYCASYRSSDINIVFGGGTKLTVLGGGGSGGGGSGGGGSEVQLVESGGGLVQPGGSLRLSCAASGFTFSSYAMSWVRQAPGKGLEWVSTINSGTYSPYYADSVKGRFTISRDNSKNTLYLQMNSLRAEDTAVYYCAKNFFDGSWFLSPPAMDYWGQGTLVTVSSHHHHHH
